Experimental findings from PMC4357707 (Nucleic Acids Research, 2015) are described below.

Data set [1] addresses T1, HEN1 wt (Arabidopsis thaliana, UniProt Q9C5Q8 1-942).
T1 sequence: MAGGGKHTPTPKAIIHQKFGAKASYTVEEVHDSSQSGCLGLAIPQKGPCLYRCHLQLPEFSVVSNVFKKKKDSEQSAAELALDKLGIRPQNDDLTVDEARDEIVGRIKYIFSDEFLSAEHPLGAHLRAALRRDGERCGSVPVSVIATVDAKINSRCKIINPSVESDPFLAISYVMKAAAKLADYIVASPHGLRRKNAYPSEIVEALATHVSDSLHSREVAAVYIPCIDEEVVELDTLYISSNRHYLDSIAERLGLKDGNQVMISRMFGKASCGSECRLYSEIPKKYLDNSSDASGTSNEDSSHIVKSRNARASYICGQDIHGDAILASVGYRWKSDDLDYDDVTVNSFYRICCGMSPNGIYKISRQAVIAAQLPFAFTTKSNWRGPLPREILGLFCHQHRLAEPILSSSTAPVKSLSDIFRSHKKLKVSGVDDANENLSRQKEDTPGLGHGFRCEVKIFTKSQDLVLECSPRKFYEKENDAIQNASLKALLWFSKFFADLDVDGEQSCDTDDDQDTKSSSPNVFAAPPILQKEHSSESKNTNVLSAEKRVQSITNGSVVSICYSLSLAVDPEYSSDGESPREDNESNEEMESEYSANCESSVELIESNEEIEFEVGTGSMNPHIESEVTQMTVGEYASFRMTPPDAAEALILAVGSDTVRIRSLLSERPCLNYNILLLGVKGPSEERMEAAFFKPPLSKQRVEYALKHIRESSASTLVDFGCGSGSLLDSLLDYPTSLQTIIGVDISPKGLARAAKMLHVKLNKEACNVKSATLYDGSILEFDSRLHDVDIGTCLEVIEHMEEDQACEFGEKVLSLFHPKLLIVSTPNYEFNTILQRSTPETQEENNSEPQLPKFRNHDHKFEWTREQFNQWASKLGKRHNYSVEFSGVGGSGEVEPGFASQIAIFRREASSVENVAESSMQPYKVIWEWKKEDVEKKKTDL
Description: EMSA. (A gel shift assay detects complexes by their altered migration in electrophoresis.)

Data set [2] addresses T2, HEN1-KKKK68-71SAAS (Arabidopsis thaliana, UniProt Q9C5Q8 1-942, K68S;K69A;K70A;K71S).
T2 sequence: T1 sequence with K68S, K69A, K70A, K71S
Kind of data set: EMSA.

Positions count from the first letter of the chain named.

B1: miR173/miR173* (dsRNA)
RNA 1: UUCGCUUGCAGAGAGAAAUCAC
RNA 2: GAUUCUCUGUGUAAGCGAAAG
With B1, in data set [1], the Kd (usually the constant that tells how readily two partners part at equilibrium) came to 0.43 ± 0.05 nM. Besides, the binding result in data set [2] was “no binding”.
